US20100210517A1 (RAPTOR PHARMACEUTICAL, published 2010)

Experiments:
MAT CR12 = molecular target: T1, MAT CR12 (human, UniProt Q9Y5Y6 452-524); test: binding of truncated MatRAP1 forms to MAT CR12, relative signal under isomolar conditions
T1 construct: also called ST14 CR12; matriptase CR12
T1 sequence: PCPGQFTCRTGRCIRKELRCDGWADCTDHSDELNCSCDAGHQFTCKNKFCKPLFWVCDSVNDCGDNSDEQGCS
Experimental: (§1) Solid phase binding assays-Purified, refolded CR protein (1 μg) was bound to Nunc Maxisorp™ 96-well plates in TBS pH 8 supplemented with 5 mM CaCl₂ (TBSC) overnight at 4° C. Wells were washed with TBSC and then blocked with TBSC containing 2% bovine serum albumin (BSA). […] Control wells contained no added ligand. As an additional control, to determine whether the absence of calcium affected binding, 10 mM EGTA was included in the incubation medium for some samples. […] Excess primary antibody was removed and wells washed before incubation with the secondary antibody, HRP-conjugated goat anti rabbit IgG (Bio-Rad). After washing, TMB substrate solutions (Bio-Rad) were added to detect HRP. Color development was stopped with 1N HCl. Absorption at 450 nm was measured with a microplate spectrophotometer (Molecular Devices). Data were plotted and Kd values derived by non-linear regression with the assumption of single-site binding (GraphPad Prism).

MAT CR23 = molecular target: T2, MAT CR23 (human); test: solid-phase binding assay; target not given, MAT CR23 is the pair MatRAP1 was selected on
T2 construct: range 487-566; also called ST14 CR23; matriptase CR23
Experimental: as §1

LRP2 CR89 [1] = molecular target: T3, LRP2 CR89 (human, UniProt P98164 1025-1102); test: solid-phase assay on coated CR protein, single-site non-linear fit
T3 construct: domain: CR89; also called YVWR; L2 CR89; not shown: N-terminal hexahistidine and S-peptide tags of pET30(+)a
Experimental: (§2) Data were plotted and fitted by non-linear regression with the assumption of a single binding site (GraphPad Prism). Kd values with standard deviations were derived from the regression analysis.
as §1

LRP1 CR3-5 [2] = molecular target: T4, LRP1 CR3-5 (human); test: as above
T4 construct: range 852-973; also called L1 CR3-5
Experimental: as §2, §1

LRP2 CR89 [3] = molecular target: T3, LRP2 CR89; test: solid-phase binding assay, CR protein coated on plate, anti-RAP detection
LRP1 CR3-5 [4] = molecular target: T4, LRP1 CR3-5; test: as above
LRP2 CR89 [5] = molecular target: T3, LRP2 CR89; test: solid-phase assay; OD at the highest ligand concentration as percent of the highest OD of all ligands
Experimental: as §1

LRP1 CR3-5 [6] = molecular target: T4, LRP1 CR3-5; test: as above
Experimental: as §1

LRP2 CR89 [7] = molecular target: T3, LRP2 CR89; test: solid-phase assay on coated CR protein, anti-RAP detection, A450
Experimental: as §2, §1

T4 sequence (Q07954 852-973): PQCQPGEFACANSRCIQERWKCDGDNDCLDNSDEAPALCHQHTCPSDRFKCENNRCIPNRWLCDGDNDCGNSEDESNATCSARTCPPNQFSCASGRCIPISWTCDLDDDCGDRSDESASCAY
T2 sequence (Q9Y5Y6 487-566): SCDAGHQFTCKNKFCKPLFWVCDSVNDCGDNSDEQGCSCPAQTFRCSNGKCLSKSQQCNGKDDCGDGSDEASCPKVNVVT
T3 sequence (P98164 1025-1102): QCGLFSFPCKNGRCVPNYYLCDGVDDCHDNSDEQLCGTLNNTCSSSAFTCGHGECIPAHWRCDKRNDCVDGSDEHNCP

Binder	Kd (LRP2 CR89 [1])	% max (LRP2 CR89 [5])	% max (LRP1 CR3-5 [6])	binding result (LRP2 CR89 [7])	other results
MatRAP1 truncated by 31 amino acids at the N-terminus (ligand, Range derived from the number of residues removed; also called MatRAP1 N-31; not shown: N-terminal hexahistidine and S-peptide tags of pET30(+)a) SANLTDKELEAFREELKHFGAKIERHNHYQKQLEIAHEWLRHAESVGDGERVSRSREKHALLEGRTKELGYTVKKHLQDLSGRISRAR	–	–	–	–	fnctn (relative binding signal under isomolar conditions) (MAT CR12): 0.35
MatRAP1 truncated by 52 amino acids at the N-terminus (ligand, Range derived from the number of residues removed (52 total); also called MatRAP1 N-52; not shown: N-terminal hexahistidine and S-peptide tags of pET30(+)a) KIERHNHYQKQLEIAHEWLRHAESVGDGERVSRSREKHALLEGRTKELGYTVKKHLQDLSGRISRAR	–	–	–	–	binding result (MAT CR12): no binding
MatRAP1 N-42 without the C-terminal linker and affinity tag (ligand, Range derived; not shown: N-terminal hexahistidine and S-peptide tags of pET30(+)a) FREELKHFGAKIERHNHYQKQLEIAHEWLRHAESVGDGERVSRSREKHALLEGRTKELGYTVKKHLQDLSGRISRAR	–	–	–	–	fold increase in affinity over MatRAP1 N-42 (MAT CR23): 2 fold
MegaRAP1 d3 double revertant A256K, E270K (ligand, not shown: N-terminal hexahistidine and S-peptide tags of pET30(+)a) LDRLRRVSHQGYTTEAKFEEPRVIDLWDLAQSANLTDKELEAFREELKYFKAKIEKHNHYQKQLEIAHEKLRHAESVGDGERVSRSREKHALLEGRTKELGYTVKKHLQDLSGRISRAR	72 nM	73%	93%	–	Kd (LRP1 CR3-5 [2]): 4 nM; fold loss of affinity against the E270K revertant (LRP2 CR89 [3]): 2 fold; fold improvement in affinity against the E270K single-site revertant (LRP1 CR3-5 [4]): ~30 fold
RAP d3 forward mutant E251K, K256A, K270E (ligand, also called triple mutant; not shown: N-terminal hexahistidine and S-peptide tags of pET30(+)a) LDRLRRVSHQGYSTEAEFEEPRVIDLWDLAQSANLTDKELEAFREELKHFKAKIEAHNHYQKQLEIAHEELRHAESVGDGERVSRSREKHALLEGRTKELGYTVKKHLQDLSGRISRAR	114 nM	40%	2%	–	–
RAP d3 forward mutant H249Y (ligand, The paragraph gives only the position; the change H249Y follows from the mutagenic primers; also called single-site RAP d3 mutant at 249; not shown: N-terminal hexahistidine and S-peptide tags of pET30(+)a) LDRLRRVSHQGYSTEAEFEEPRVIDLWDLAQSANLTDKELEAFREELKYFEAKIEKHNHYQKQLEIAHEKLRHAESVGDGERVSRSREKHALLEGRTKELGYTVKKHLQDLSGRISRAR	–	2%	90%	no binding (tested: 100 nM)	Kd (LRP1 CR3-5 [2]): 28 nM
RAP d3 forward mutant K256A, K270E (ligand, also called K270E in combination with K256A; not shown: N-terminal hexahistidine and S-peptide tags of pET30(+)a) LDRLRRVSHQGYSTEAEFEEPRVIDLWDLAQSANLTDKELEAFREELKHFEAKIEAHNHYQKQLEIAHEELRHAESVGDGERVSRSREKHALLEGRTKELGYTVKKHLQDLSGRISRAR	–	3%	2%	no binding (tested: 100 nM)	–
RAP d3 forward mutant E251K (ligand, The paragraph gives only the position; the change E251K follows from the mutagenic primers; not shown: N-terminal hexahistidine and S-peptide tags of pET30(+)a) LDRLRRVSHQGYSTEAEFEEPRVIDLWDLAQSANLTDKELEAFREELKHFKAKIEKHNHYQKQLEIAHEKLRHAESVGDGERVSRSREKHALLEGRTKELGYTVKKHLQDLSGRISRAR	–	5%	100%	no binding (tested: 100 nM)	Kd (LRP1 CR3-5 [2]): 7 nM
MegaRAP1 d3 revertant K217E (ligand, MegaRAP1 d3 with position 217 reverted to wild type; not shown: N-terminal hexahistidine and S-peptide tags of pET30(+)a) LDRLRRVSHQGYTTEAEFEEPRVIDLWDLAQSANLTDKELEAFREELKYFKAKIEAHNHYQKQLEIAHEELRHAESVGDGERVSRSREKHALLEGRTKELGYTVKKHLQDLSGRISRAR	25 nM	88%	2%	–	–
MegaRAP1 d3 revertant K251E (ligand, not shown: N-terminal hexahistidine and S-peptide tags of pET30(+)a) LDRLRRVSHQGYTTEAKFEEPRVIDLWDLAQSANLTDKELEAFREELKYFEAKIEAHNHYQKQLEIAHEELRHAESVGDGERVSRSREKHALLEGRTKELGYTVKKHLQDLSGRISRAR	–	11%	2%	no binding (tested: 100 nM)	–
MegaRAP1 d3 double revertant K251E, E270K (ligand, not shown: N-terminal hexahistidine and S-peptide tags of pET30(+)a) LDRLRRVSHQGYTTEAKFEEPRVIDLWDLAQSANLTDKELEAFREELKYFEAKIEAHNHYQKQLEIAHEKLRHAESVGDGERVSRSREKHALLEGRTKELGYTVKKHLQDLSGRISRAR	153 nM	16%	16%	–	fold difference in affinity against the single-site E270K revertant (LRP2 CR89 [3]): ~20 fold
RAP d3 forward mutant K270E (ligand, also called K270E alone; not shown: N-terminal hexahistidine and S-peptide tags of pET30(+)a) LDRLRRVSHQGYSTEAEFEEPRVIDLWDLAQSANLTDKELEAFREELKHFEAKIEKHNHYQKQLEIAHEELRHAESVGDGERVSRSREKHALLEGRTKELGYTVKKHLQDLSGRISRAR	–	2%	4%	no binding (tested: 100 nM)	–
RAP d3 forward mutant E251K, K270E (ligand, also called K270E in combination with E251K; not shown: N-terminal hexahistidine and S-peptide tags of pET30(+)a) LDRLRRVSHQGYSTEAEFEEPRVIDLWDLAQSANLTDKELEAFREELKHFKAKIEKHNHYQKQLEIAHEELRHAESVGDGERVSRSREKHALLEGRTKELGYTVKKHLQDLSGRISRAR	–	2%	4%	no binding (tested: 100 nM)	–
MegaRAP1 d3 revertant Y249H (ligand, MegaRAP1 d3 with position 249 reverted to wild type; not shown: N-terminal hexahistidine and S-peptide tags of pET30(+)a) LDRLRRVSHQGYTTEAKFEEPRVIDLWDLAQSANLTDKELEAFREELKHFKAKIEAHNHYQKQLEIAHEELRHAESVGDGERVSRSREKHALLEGRTKELGYTVKKHLQDLSGRISRAR	–	35%	2%	–	–
MegaRAP1 d3 revertant A256K (ligand, not shown: N-terminal hexahistidine and S-peptide tags of pET30(+)a) LDRLRRVSHQGYTTEAKFEEPRVIDLWDLAQSANLTDKELEAFREELKYFKAKIEKHNHYQKQLEIAHEELRHAESVGDGERVSRSREKHALLEGRTKELGYTVKKHLQDLSGRISRAR	–	2%	6%	no binding (tested: 100 nM)	–
RAP d3 forward mutant E217K (ligand, The paragraph gives only the position; the change E217K follows from the mutagenic primers and the MegaRAP1 mutation set; also called single-site RAP d3 mutant at 217; not shown: N-terminal hexahistidine and S-peptide tags of pET30(+)a) LDRLRRVSHQGYSTEAKFEEPRVIDLWDLAQSANLTDKELEAFREELKHFEAKIEKHNHYQKQLEIAHEKLRHAESVGDGERVSRSREKHALLEGRTKELGYTVKKHLQDLSGRISRAR	–	5%	91%	no binding (tested: 100 nM)	Kd (LRP1 CR3-5 [2]): 9 nM
MegaRAP1 d3 revertant T213S (ligand, MegaRAP1 d3 with position 213 reverted to wild type; not shown: N-terminal hexahistidine and S-peptide tags of pET30(+)a) LDRLRRVSHQGYSTEAKFEEPRVIDLWDLAQSANLTDKELEAFREELKYFKAKIEAHNHYQKQLEIAHEELRHAESVGDGERVSRSREKHALLEGRTKELGYTVKKHLQDLSGRISRAR	19 nM	94%	2%	–	–
MegaRAP1 d3 revertant E270K (ligand, MegaRAP1 d3 with position 270 reverted to wild type; also called MegaRAP1 d3 E270K; E270K revertant; not shown: N-terminal hexahistidine and S-peptide tags of pET30(+)a) LDRLRRVSHQGYTTEAKFEEPRVIDLWDLAQSANLTDKELEAFREELKYFKAKIEAHNHYQKQLEIAHEKLRHAESVGDGERVSRSREKHALLEGRTKELGYTVKKHLQDLSGRISRAR	8 nM	100%	–	–	Kd (LRP1 CR3-5 [2]): 114 nM; Kd (LRP1 CR3-5 [4]): 142 nM
MatRAP1 truncated by 10 amino acids at the N-terminus (ligand, Range derived: d3 starts at 201 and 10 residues were removed; also called MatRAP1 N-10; not shown: N-terminal hexahistidine and S-peptide tags of pET30(+)a) GYSTEAEFEEPRVIDLWDLAQSANLTDKELEAFREELKHFGAKIERHNHYQKQLEIAHEWLRHAESVGDGERVSRSREKHALLEGRTKELGYTVKKHLQDLSGRISRAR	–	–	–	–	fnctn (relative binding signal under isomolar conditions) (MAT CR12): 0.1
MatRAP1 truncated variant, amino acids 243-313 (71 amino acids) (ligand, also called best truncated variant; not shown: N-terminal hexahistidine and S-peptide tags of pET30(+)a) FREELKHFGAKIERHNHYQKQLEIAHEWLRHAESVGDGERVSRSREKHALLEGRTKELGYTVKKHLQDLSG	–	–	–	–	fold increase in affinity over MatRAP1 N-42 (MAT CR23): 4 fold; fold increase in affinity over the full-length d3 variant (MAT CR23): 12 fold; fnctn (relative binding signal under isomolar conditions) (MAT CR12): 2.7
